Reference: patent US10677782B2, “Methods of determining interferon having direct inhibitory effects on tumors and uses thereof” (SUPERLAB FAR EAST LIMITED, priority 2013, dated 2020)

Tests used:
[1] = test system: Human Cervical Cancer Hela Xenografts; experiment: Human cervical cancer Hela xenografts in nude mice (Example 2); type: in vivo; conditions: for TV (mm^3, mean ± SD) (D0): day 0, start of treatment; for TV (mm^3, mean ± SD) (D28): day 28
Procedure: Before commencement of this study, the xenografts were passaged twice in nude mice. Under sterile conditions, well-grown tumors were cut into 1.5 mm^3 fragments and one such fragment was injected by trocar needle into the right flank of each study animal. […] Individual tumor size (length and width) was measured twice per week with microcalipers. Tumor volume (V) was calculated using the formula: V=(length×width^2)/2. Individual relative tumor volume (RTV) was calculated using the formula: RTV=Vt/V0, where Vt is the tumor volume on the day of measurement and V0 is the tumor volume on the day of first treatment. Therapeutic effect of the test article or control article was expressed in terms of TIC (%), using the formula: TIC (%) (mean RTV of the treated group/mean RTV of the control group)×100%; and in terms of % Inhibition, using the formula: % Inhibition=100%−T/C %.
Then 1.5 mm^3 fragments were prepared for s.c. implantation into the animals.

CD24 mRNA in A549 cells = experiment: qPCR of Wnt pathway target genes in A549 cells; type: cell-based, human; conditions: 10 μg/ml, 24 hr; Mock control set at 1
Procedure: (§1) After 24 hr of treatment, cellular total mRNA was isolated using TRIZOL Reagent and cDNA was synthesized and further subjected to qPCR, using specific primers of four (4) Wnt signaling downstream genes, Axin2, CD24, Survivin and ID2. Experiments were conducted in triplicate and normalized with the Mock group.
(§2) Total mRNA was isolated using TRIZOL Reagent (Invitrogen, Carlsbad, Calif.) according to the manufacturer's instructions. Complementary DNA (cDNA) was synthesized using a RT-PCR Kit (Cat #: FSQ-101, TOYOBO, Japan) according to the manufacturer's instructions and then subjected to qPCR with a SYBR Green PCR kit (Cat #: QPK-201, TOYOBO, Japan). The primers of the four Wnt pathway target genes were as follows: Axin2 sense primer: 5′-[…]-3′ (SEQ ID NO:8) and antisense primer: 5′-[…]-3′ (SEQ ID NO: 9); CD24 sense primer: 5′-[…]-3′ (SEQ ID NO: 10) andantisense primer: 5′-[…]-3′ (SEQ ID NO: 11); Survivin sense primer: 5′-[…]-3′ (SEQ ID NO: 12) and antisense primer: 5′-[…]-3′ (SEQ ID NO: 13) and ID2 sense primer: 5′-[…]-3′ (SEQ ID NO: 14) and antisense primer: 5′-[…]-3′ (SEQ ID NO: 15).
(§3) The amplification protocol consisted of incubations at 95° C. for 1 minute, 40 cycles (95° C. for 15 seconds, 60° C. for 15 seconds, 72° C. for 30 seconds). Incorporation of the SYBR Green dye into PCR products was monitored in real time with a Bio-Rad Detection System and subsequently analyzed using Bio-Rad CFX manager 2.1 software. The samples were pooled for each condition and run in duplicate. Treated samples were compared to Mock using the 2^−ΔΔCt method and plotted as fold change. GAPDH was used as the normalization control.

ID2 mRNA in A549 cells = experiment: qPCR of Wnt pathway target genes in A549 cells; type: cell-based, human; conditions: 10 μg/ml, 24 hr; Mock control set at 1
Procedure: as §1, §2, §3

Axin2 mRNA in A549 cells = experiment: qPCR of Wnt pathway target genes in A549 cells; type: cell-based, human; conditions: 10 μg/ml, 24 hr; Mock control set at 1
Procedure: as §1, §2, §3

[2] = test system: Survivin mRNA in A549 cells; experiment: qPCR of Wnt pathway target genes in A549 cells; type: cell-based, human; conditions: 10 μg/ml, 24 hr; Mock control set at 1
Procedure: as §1, §2, §3

[3] = 0.05 mg/mouse i.t. every other day
[4] = 0.10 mg/mouse i.t. every other day
[5] = 0.15 mg/mouse i.t. every other day

B1: rSIFN-co: Recombinant super-compound interferon; amino acid sequence SEQ ID NO: 1 (same as interferon alfacon-1), encoded by SEQ ID NO: 2, novel tertiary structure (protein)
chain: MCDLPQTHSLGNRRALILLAQMRRISPFSCLKDRHDFGFPQEEFDGNQFQKAQAISVLHEMIQQTFNLFSTKDSSAAWDESLLEKFYTELYQQLNDLEACVIQEVGVEETPLMNVDSILAVKKYFQRITLYLTEKKYSPCAWEVVRAEIMRSFSLSTNLQERLRRKE
modifications: Amino acid sequence of recombinant interferon
- TV (mm^3, mean ± SD) (D0) [1, 3]: 135 ± 26 mm^3
- TV (mm^3, mean ± SD) (D28) [1, 3]: 886 ± 232 mm^3
- TV (mm^3, mean ± SD) (D0) [1, 4]: 135 ± 28 mm^3
- TV (mm^3, mean ± SD) (D28) [1, 4]: 865 ± 186 mm^3
- TV (mm^3, mean ± SD) (D0) [1, 5]: 136 ± 25 mm^3
- TV (mm^3, mean ± SD) (D28) [1, 5]: 1025 ± 400 mm^3
- relative expression level of CD24 mRNA (CD24 mRNA in A549 cells): about 0.4
- relative expression level of ID2 mRNA (ID2 mRNA in A549 cells): about 0.4
- relative expression level of Axin2 mRNA (Axin2 mRNA in A549 cells): about 0.4
- relative expression level of Survivin mRNA [2]: about 0.4
